From publication PMC8059062 (The Journal of Biological Chemistry, 2021)
Ends that are not written are not given here.

T1: full-length FGF12A (aa 1-243) (human, UniProt P61328-1 1-243)
T1 construct: four nonnative residues left at the N terminus after removal of the His-GST tag with 3C protease; human FGF12A (A-type splice variant of FGF12), full-length, aa 1-243; Obtained only as the FGF12A+NaV1.2CTD complex; not shown: His-GST, N-terminal, cleaved
T1 sequence: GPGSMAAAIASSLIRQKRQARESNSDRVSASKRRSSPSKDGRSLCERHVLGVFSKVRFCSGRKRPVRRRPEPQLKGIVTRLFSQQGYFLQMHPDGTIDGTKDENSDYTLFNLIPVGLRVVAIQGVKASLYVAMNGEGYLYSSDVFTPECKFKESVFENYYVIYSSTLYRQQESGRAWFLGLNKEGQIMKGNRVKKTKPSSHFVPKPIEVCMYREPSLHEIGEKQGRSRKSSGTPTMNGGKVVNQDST


How the values were obtained:
[1] = biological target: T2, calmodulin, wild type, full-length (aa 1-148) (human, UniProt P0DP23 1-149); experiment: other fluorescence titration; YFP-CFP FRET biosensor (>=1 nM) with Ca2+-saturated WT or mutant CaM, emission spectra and equilibrium titrations; 50 mM HEPES, 100 mM KCl, 1 mM MgCl2, 50 uM EGTA, 5 mM NTA, 1.5 uM BSA, 500 uM DTT, 1 mM CaCl2, pH 7.4, 22 C
T2 construct: human calmodulin, full-length, aa 1-148; numbers count on: the protein without the initial Met (UniProt numbers are one higher); Ca2+-saturated ((Ca2+)4-CaM) and Ca2+-depleted (apo) states are the same molecule; the state is told by the assay; 15N-labelled in some NMR samples; also called CaM; WT CaM; source: bacterially overexpressed (pT7-7 vector) and purified; also bacterially coexpressed with …

[2] = biological target: T2, calmodulin, wild type, full-length (aa …); experiment: NMR 15N-HSQC chemical shift comparison; copurified 1:1 complexes, one partner 15N-labelled (290-600 uM), compared with isolated (Ca2+)2-CaMN and (Ca2+)2-CaMC and with each other; 50 mM HEPES, 100 mM KCl, 1 mM MgCl2, 50 uM EGTA, 5 mM NTA, 10 mM CaCl2, pH 7.4, 25 C; conditions: both partners purified
[3] = biological target: T2, calmodulin, wild type, full-length (aa …); experiment: not stated; (Ca2+)4-CaM binding to NaV IQ motifs; data not shown
[4] = biological target: T1, full-length FGF12A (aa 1-243); experiment: co-purification after refolding; denatured His-GST-FGF12A refolded by rapid dilution at 4 C into buffer with CaM+NaV1.2CTD (0.2 uM); tag cleaved, nickel resin repass, anion exchange (pH 8.5-7.4, KCl 0-300 mM) removes CaM; conditions: both partners purified

Binder	Kd [1] [nM]	other results
KSLCQKQLLILLSKVRLCGGRPARPDR (domain or fragment, cysteine pairing not given here; also: fused between YFP and CFP, source: expressed from a pET21B vector) [FGF11A_(CaMBD) biosensor (FGF11A CaMBD, residues 36-62, between YFP and CFP)]	19	–
MAAAIASSLIRQKRQARESNSDR (domain or fragment, source: expressed from a pET21B vector) [FGF12ALTP biosensor (FGF12A LTP, residues 1-23, between YFP and CFP)]	576	–
FGF12ANTD (FGF12A N-terminal domain, aa 1-70) (domain or fragment, four nonnative residues left at the N terminus after removal of the His-GST tag with 3C protease; human FGF12A N-terminal domain, aa 1-70, contains LTP and CaMBD; 15N-labelled in some NMR samples; source: bacterial coexpression with CaM, copurified; not shown: His-GST, N-terminal, cleaved) GPGSMAAAIASSLIRQKRQARESNSDRVSASKRRSSPSKDGRSLCERHVLGVFSKVRFCSGRKRPVRRRPEPQL	–	binding result [2]: binds
RSLCERHVLGVFSKVRFCSGRKRPVRR (domain or fragment, cysteine pairing not given here; also: fused between YFP and CFP, source: expressed from a pET21B vector) [FGF12A_(CaMBD) biosensor (FGF12A CaMBD, residues 38-64, between YFP and CFP)]	107	–
KTSCDKNKLNVFSRVKLFGSKKRRRR (domain or fragment, also: fused between YFP and CFP, source: expressed from a pET21B vector) [FGF13A_(CaMBD) biosensor (FGF13A CaMBD, residues 35-60, between YFP and CFP)]	13	–
EEVSAIIIQRAYRRYLLKQKVKKVSSIYKK (domain or fragment, IQ motif of NaV1.2; also called IQ motif of NaV1.2) [NaV1.2 IQ motif]	–	Kd [3]: 19.8 nM
NaV1.2CTD (fragment of the NaV1.2 C-terminal domain, residues 1777-1937, with EFL and IQ motif) (domain or fragment, human, four nonnative residues left at the N terminus after removal of the His-GST tag with 3C protease; human NaV1.2 (SCN2A) C-terminal domain fragment, aa 1777-1937, contains the EF-hand like domain and the IQ motif; source: bacterial coexpression with CaM, copurified; not shown: His-GST, N-terminal, cleaved) GPGSENFSVATEESAEPLSEDDFEMFYEVWEKFDPDATQFIEFAKLSDFADALDPPLLIAKPNKVQLIAMDLPMVSGDRIHCLDILFAFTKRVLGESGEMDALRIQMEERFMASNPSKVSYEPITTTLKRKQEEVSAIIIQRAYRRYLLKQKVKKVSSIYKKDKG	–	binding result [4]: binds
